{"source": "the supplement of paper PMC9170038", "test_system": "MS2 coat protein", "test": "apparent KD of MS2 coat protein; higher = weaker reporter binding", "conditions": "Eterna round: R107", "description": "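RNA-MaP round R107: designed RNA switches with theophylline, tryptophan, arginine or FMN aptamers are transcribed on-chip within common flanks. They are titrated with SNAP-549-labelled MS2 coat protein in RNA-MaP buffer (100 mM Tris pH 7.5, 80 mM KCl, 4 mM MgCl2), without ligand or with the indicated ligand. Median apparent KD per design.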", "key": {"[1]": {"conditions": "input ligand: theophylline 20 uM"}, "[2]": {"conditions": "input ligand: theophylline 2 mM"}, "[3]": {"conditions": "input ligand: tryptophan 2.4 mM"}}}
{"sequence": "GGCUAGGUCUCGGCCGCCACUGCUACAUGAGGAUCACCCAUGUACCUGGGCGGUCGCUCCCUCGGCAGGACCGGGAGACAUUCGU [Onarbeisan]", "values": [{"measurement": "apparent KD of MS2 coat protein", "setting": "input ligand: arginine 13.2 mM", "result": 9.2, "unit": "nM"}, {"measurement": "apparent KD of MS2 coat protein", "setting": "[1]", "result": 13.8, "unit": "nM"}, {"measurement": "apparent KD of MS2 coat protein", "setting": "[2]", "result": 12.5, "unit": "nM"}]}
{"sequence": "AGCCAUGGAAACAUGGCGGCGGCUUGAGCGCGAGGACCGGUACGGCCGCCACUCGGGCAACAUGAGGAUCACCCAUGUUCCUCAU [ETA NP+V+V2 #19]", "values": [{"measurement": "apparent KD of MS2 coat protein", "setting": "input ligand: arginine 13.2 mM", "result": 64, "unit": "nM"}, {"measurement": "apparent KD of MS2 coat protein", "setting": "input ligand: none", "result": 113, "unit": "nM"}, {"measurement": "apparent KD of MS2 coat protein", "setting": "[1]", "result": 104, "unit": "nM"}, {"measurement": "apparent KD of MS2 coat protein", "setting": "[2]", "result": 75.7, "unit": "nM"}, {"measurement": "apparent KD of MS2 coat protein", "setting": "[3]", "result": 190, "unit": "nM"}]}
{"sequence": "CGAACAUGAGGAUCACCCAUGUUAACCGAAGGAGCGGCGCAUAAGUCAGGUAGGUCGCGGUAGAUGAAAUAGAGCAGUGGUGACA [#01 Same State - Arginine A]", "values": [{"measurement": "apparent KD of MS2 coat protein", "setting": "input ligand: arginine 13.2 mM", "result": 24.4, "unit": "nM"}, {"measurement": "apparent KD of MS2 coat protein", "setting": "input ligand: none", "result": 31.7, "unit": "nM"}, {"measurement": "apparent KD of MS2 coat protein", "setting": "[1]", "result": 45, "unit": "nM"}, {"measurement": "apparent KD of MS2 coat protein", "setting": "[2]", "result": 32, "unit": "nM"}, {"measurement": "apparent KD of MS2 coat protein", "setting": "[3]", "result": 27, "unit": "nM"}]}
{"sequence": "CACUAUGAGGUCGAUACCAGUACUGAGUUGUACAUGAGGAUCACCCAUGUAAAUGUUCGCUACCCUUGGCAGCGAUAACAUUGCA [theeternabot_sameState_MS2_Theo_B_34]", "values": [{"measurement": "apparent KD of MS2 coat protein", "setting": "input ligand: arginine 13.2 mM", "result": 73.8, "unit": "nM"}, {"measurement": "apparent KD of MS2 coat protein", "setting": "[1]", "result": 331, "unit": "nM"}, {"measurement": "apparent KD of MS2 coat protein", "setting": "[3]", "result": 246, "unit": "nM"}]}
{"sequence": "ACUAGAGGUGGAAGGAGCGGGAGACAUGAGGAUCACAUGAGGAUCACCCAUGUAGGAUCAUCCCAGGUAGGUCGCCAUGUCGAAA [,mmlmullin]", "values": [{"measurement": "apparent KD of MS2 coat protein", "setting": "input ligand: arginine 13.2 mM", "result": 46, "unit": "nM"}, {"measurement": "apparent KD of MS2 coat protein", "setting": "input ligand: none", "result": 979, "unit": "nM"}, {"measurement": "apparent KD of MS2 coat protein", "setting": "[1]", "result": 255, "unit": "nM"}, {"measurement": "apparent KD of MS2 coat protein", "setting": "[2]", "result": 456, "unit": "nM"}, {"measurement": "apparent KD of MS2 coat protein", "setting": "[3]", "result": 293, "unit": "nM"}]}
{"sequence": "AGCAAGCAACAUGAGGAUCACCCAUGUGAAGGAGCGCCGAAUAAGGCAGGUAGGUCGCACAUGAAUAAAUCAUGUAAAAGCUUGC [MAT - Exclusion Arginine A - Mod of Eli - D23]", "values": [{"measurement": "apparent KD of MS2 coat protein", "setting": "input ligand: arginine 13.2 mM", "result": 104, "unit": "nM"}, {"measurement": "apparent KD of MS2 coat protein", "setting": "input ligand: none", "result": 185, "unit": "nM"}, {"measurement": "apparent KD of MS2 coat protein", "setting": "[1]", "result": 164, "unit": "nM"}, {"measurement": "apparent KD of MS2 coat protein", "setting": "[2]", "result": 68.1, "unit": "nM"}, {"measurement": "apparent KD of MS2 coat protein", "setting": "[3]", "result": 138, "unit": "nM"}]}
{"sequence": "AUAUUACAUGUUAUUAUACGGUAUACUGAUACCAGUGUUUCUAUUCACCCUUGGCAGCAGCAACAUGAGGAUCACCCAUGUAUUA [JR_SSTheophyA_Sub018]", "values": [{"measurement": "apparent KD of MS2 coat protein", "setting": "input ligand: arginine 13.2 mM", "result": 15.6, "unit": "nM"}, {"measurement": "apparent KD of MS2 coat protein", "setting": "[1]", "result": 19, "unit": "nM"}, {"measurement": "apparent KD of MS2 coat protein", "setting": "[3]", "result": 18, "unit": "nM"}]}
{"sequence": "AAAGAUCGGAAACGAUCGGCGGCUUGGGCGCGAGGACCGGUACGGCCGCCACUCGGGAAACAUGAGGAUCACCCAUGUUGCUUCU [ETA NP+V+V2 #16]", "values": [{"measurement": "apparent KD of MS2 coat protein", "setting": "input ligand: arginine 13.2 mM", "result": 10, "unit": "nM"}, {"measurement": "apparent KD of MS2 coat protein", "setting": "[1]", "result": 12.5, "unit": "nM"}, {"measurement": "apparent KD of MS2 coat protein", "setting": "[2]", "result": 11.9, "unit": "nM"}]}
{"sequence": "ACAUGAGGAUCACCCAUGUAUCAACGGGAAGGAGCGCCAAACAAGGCAGGUAGGUCGCCCACAUGAGGAUCACCCGUGUGUUGGG [Exclusion Arginine A GF 30]", "values": [{"measurement": "apparent KD of MS2 coat protein", "setting": "input ligand: arginine 13.2 mM", "result": 23.1, "unit": "nM"}, {"measurement": "apparent KD of MS2 coat protein", "setting": "input ligand: none", "result": 37.8, "unit": "nM"}, {"measurement": "apparent KD of MS2 coat protein", "setting": "[1]", "result": 58.5, "unit": "nM"}, {"measurement": "apparent KD of MS2 coat protein", "setting": "[2]", "result": 43.9, "unit": "nM"}, {"measurement": "apparent KD of MS2 coat protein", "setting": "[3]", "result": 38.4, "unit": "nM"}]}
{"sequence": "UGGUACAUGAGGAUCACCCAUGUUCCAGAUACCAGAUACCCGGUUAUCCCUUGGCAGCUGGUGGUACAUGAGGAUCACCCAUGUG [Exclusion Theophylline A GF15]", "values": [{"measurement": "apparent KD of MS2 coat protein", "setting": "input ligand: arginine 13.2 mM", "result": 32.9, "unit": "nM"}, {"measurement": "apparent KD of MS2 coat protein", "setting": "[1]", "result": 58.9, "unit": "nM"}, {"measurement": "apparent KD of MS2 coat protein", "setting": "[3]", "result": 44, "unit": "nM"}]}
{"sequence": "GGCACAUAGUCGGCCGCCACUAGGGUGUAGUGGAAUAACAUGAGGAUCACCCAUGUAUUUGGGACUAGGACCGGGACUAUGUGCC [Leopard]", "values": [{"measurement": "apparent KD of MS2 coat protein", "setting": "input ligand: arginine 13.2 mM", "result": 27.2, "unit": "nM"}, {"measurement": "apparent KD of MS2 coat protein", "setting": "[1]", "result": 40.4, "unit": "nM"}, {"measurement": "apparent KD of MS2 coat protein", "setting": "[2]", "result": 30, "unit": "nM"}]}
{"sequence": "GAUAACAUGAGGAUCACCCAUGUGGCGUCGCGAGGACCGGUACGGCCGCCACUCGGCAGUUCAACUCGAAUAUAGUGAUCGAAGU [theeternabot_sameState_MS2_Trp_A_16]", "values": [{"measurement": "apparent KD of MS2 coat protein", "setting": "input ligand: arginine 13.2 mM", "result": 47.6, "unit": "nM"}, {"measurement": "apparent KD of MS2 coat protein", "setting": "[1]", "result": 182, "unit": "nM"}, {"measurement": "apparent KD of MS2 coat protein", "setting": "[2]", "result": 223, "unit": "nM"}]}
{"sequence": "AAAACACAUGAGGAUCACCCAUGUCGUGAUACCAGUCAACAUGAGGACCCUUGGCAGCAUAAAAUGGGUAACAUGAGGAUAACCC [AstrosEXyTheA#3]", "values": [{"measurement": "apparent KD of MS2 coat protein", "setting": "input ligand: arginine 13.2 mM", "result": 75.4, "unit": "nM"}, {"measurement": "apparent KD of MS2 coat protein", "setting": "[1]", "result": 105, "unit": "nM"}, {"measurement": "apparent KD of MS2 coat protein", "setting": "[3]", "result": 101, "unit": "nM"}]}
{"sequence": "AGAGAUGAACAUGAGGAUCACCCAUGUAAACGAGGACCGGUACGGCCGCCACUCGUGGGUGUAAUAGAAUAAUAAGAGAAUAAUA [Turkey 1]", "values": [{"measurement": "apparent KD of MS2 coat protein", "setting": "input ligand: arginine 13.2 mM", "result": 24.4, "unit": "nM"}, {"measurement": "apparent KD of MS2 coat protein", "setting": "input ligand: none", "result": 63.2, "unit": "nM"}, {"measurement": "apparent KD of MS2 coat protein", "setting": "[1]", "result": 92, "unit": "nM"}, {"measurement": "apparent KD of MS2 coat protein", "setting": "[2]", "result": 59.6, "unit": "nM"}, {"measurement": "apparent KD of MS2 coat protein", "setting": "[3]", "result": 75.5, "unit": "nM"}]}
{"sequence": "CCAUACGUAACUGAUACCAGUGUACUGACAUGAGGAUCACCCAUGUUGGGUUUUGUUGUACACCCUUGGCAGCAGAAUCGUAUGG [AstrosExyTheB#19]", "values": [{"measurement": "apparent KD of MS2 coat protein", "setting": "input ligand: arginine 13.2 mM", "result": 56.5, "unit": "nM"}, {"measurement": "apparent KD of MS2 coat protein", "setting": "[1]", "result": 65.1, "unit": "nM"}, {"measurement": "apparent KD of MS2 coat protein", "setting": "[3]", "result": 65.8, "unit": "nM"}]}
{"sequence": "ACGUUGUAGUCGGCCGCCACUGUUUUCAUGUUCAACAUGAGGAUCACCCAUGUACCUUUUUUUAUCAGGACCGGGACGUAUUCGA [JR_SSTryptoB_Sub003]", "values": [{"measurement": "apparent KD of MS2 coat protein", "setting": "input ligand: arginine 13.2 mM", "result": 46.5, "unit": "nM"}, {"measurement": "apparent KD of MS2 coat protein", "setting": "[1]", "result": 102, "unit": "nM"}, {"measurement": "apparent KD of MS2 coat protein", "setting": "[2]", "result": 96.8, "unit": "nM"}]}
{"sequence": "AGAGUCAGACAAAAGUCUGGCUCAGCCGAAGGAGCGUCCGAAAGGACAGGUAGGUCGCGGUUACCUGAGGAUCACCCAGGUUCCU [ArgAS 24 #OpenEnded #AlternativeMS2]", "values": [{"measurement": "apparent KD of MS2 coat protein", "setting": "input ligand: arginine 13.2 mM", "result": 53.8, "unit": "nM"}, {"measurement": "apparent KD of MS2 coat protein", "setting": "input ligand: none", "result": 139, "unit": "nM"}, {"measurement": "apparent KD of MS2 coat protein", "setting": "[1]", "result": 86.9, "unit": "nM"}, {"measurement": "apparent KD of MS2 coat protein", "setting": "[2]", "result": 115, "unit": "nM"}, {"measurement": "apparent KD of MS2 coat protein", "setting": "[3]", "result": 91.5, "unit": "nM"}]}
